We go through five sequences from the supplement of paper PMC5998384.

Data set [1] has as its system HeLa Kyoto. The data set can be described thus: solubility in G1/S (NP-40 vs SDS abundance) (log2 ratio); higher = more soluble. Conditions: cell cycle stage: G1/S.
The subject of data set [2] is HeLa Kyoto. Put plainly: solubility change mitosis vs G1/S (difference of NP-40 vs SDS log2 ratios) (log2 ratio difference); higher = more soluble in mitosis.
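Wherever solubility change mitosis vs G1/S (difference of NP-40 vs SDS log2 ratios) is given: synchronized HeLa Kyoto cells (double thymidine block for G1/S, nocodazole release for mitosis), protein amounts in NP-40 versus SDS lysates quantified by mass spectrometry, three biological replicates.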
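Wherever solubility in G1/S (NP-40 vs SDS abundance) is given: HeLa Kyoto cells arrested at G1/S by double thymidine block, proteins quantified by TMT10plex mass spectrometry in mild NP-40 versus SDS extracts, three biological replicates.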

Take “MATFVSELEAAKKNLSEALGDNVKQYWANLKLWFKQKISKEEFDLEAHRLLTQDNVHSHNDFLLAILTRCQILVSTPDGAGSLPWPGGSAAKPGKPKGKKKLSSVRQKFDHRFQPQNPLSGAQQFVAKDPQDDDDLKLCSHTMMLPTRGQLEGRMIVTAYEHGLDNVTEEAVSAVVYAVENHLKDILTSVVSRRKAYRLRDGHFKYAFGSNVTPQPYLKNSVVAYNNLIESPPAFTAPCAGQNPASHPPPDDAEQQAALLLACSGDTLPASLPPVNMYDLFEALQVHREVIPTHTVYALNIERIITKLWHPNHEELQQDKVHRQRLAAKEGLLLC [TADA1]”: in data set [1], the “solubility in G1/S (log2)” value came to 0.289. In addition, the “solubility change mitosis (log2)” value in data set [2] was -0.0314.
Take “MATPGPVIPEVPFEPSKPPVIEGLSPTVYRNPESFKEKFVRKTRENPVVPIGCLATAAALTYGLYSFHRGNSQRSQLMMRTRIAAQGFTVAAILLGLAVTAMKSRP [HIGD2A]”: in data set [1], the “solubility in G1/S (log2)” value is -0.399. Moreover, in data set [2], the “solubility change mitosis (log2)” value worked out at 0.482.
In the same order, the values of “MATPRGRTKKKASFDHSPDSLPLRSSGRQAKKKATETTDEDEDGGSEKKYRKCEKAGCTATCPVCFASASERCAKNGYTSRWYHLSCGEHFCNECFDHYYRSHKDGYDKYTTWKKIWTSNGKTEPSPKAFMADQQLPYWVQCTKPECRKWRQLTKEIQLTPQIAKTYRCGMKPNTAIKPETSDHCSLPEDLRVLEVSNHWWYSMLILPPLLKDSVAAPLLSAYYPDCVGMSPSCTSTNRAAATGNASPGKLEHSKAALSVHVPGMNRYFQPFYQPNECGKALCVRPDVMELDELYEFPEYSRDPTMYLALRNLILALWYTNCKEALTPQKCIPHIIVRGLVRIRCVQEVERILYFMTRKGLINTGVLSVGADQYLLPKDYHNKSVIIIGAGPAGLAAARQLHNFGIKVTVLEAKDRIGGRVWDDKSFKGVTVGRGAQIVNGCINNPVALMCEQLGISMHKFGERCDLIQEGGRITDPTIDKRMDFHFNALLDVVSEWRKDKTQLQDVPLGEKIEEIYKAFIKESGIQFSELEGQVLQFHLSNLEYACGSNLHQVSARSWDHNEFFAQFAGDHTLLTPGYSVIIEKLAEGLDIQLKSPVQCIDYSGDEVQVTTTDGTGYSAQKVLVTVPLALLQKGAIQFNPPLSEKKMKAINSLGAGIIEKIALQFPYRFWDSKVQGADFFGHVPPSASKRGLFAVFYDMDPQKKHSVLMSVIAGEAVASVRTLDDKQVLQQCMATLRELFKEQEVPDPTKYFVTRWSTDPWIQMAYSFVKTGGSGEAYDIIAEDIQGTVFFAGEATNRHFPQTVTGAYLSGVREASKIAAF [KDM1B]” are -0.371 and 0.0563.
As to “MATVGAPRHFCRCACFCTDNLYVARYGLHVRFRGEQQLRRDYGPILRSRGCVSAKDFQQLLAELEQEVERRQRLGQESAARKALIASSYHPARPEVYDSLQDAALAPEFLAVTEYSVSPDADLKGLLQRLETVSEEKRIYRVPVFTAPFCQALLEELEHFEQSDMPKGRPNTMNNYGVLLHELGLDEPLMTPLRERFLQPLMALLYPDCGGGRLDSHRAFVVKYAPGQDLELGCHYDNAELTLNVALGKVFTGGALYFGGLFQAPTALTEPLEVEHVVGQGVLHRGGQLHGARPLGTGERWNLVVWLRASAVRNSLCPMCCREPDLVDDEGFGDGFTREEPATVDVCALT [OGFOD2]”, the “solubility in G1/S (log2)” value in data set [1] was 0.182. Besides, the “solubility change mitosis (log2)” value in data set [2] worked out at 0.112.
The matching figures for “MAVLGVQLVVTLLTATLMHRLAPHCSFARWLLCNGSLFRYKHPSEEELRALAGKPRPRGRKERWANGLSEEKPLSVPRDAPFQLETCPLTTVDALVLRFFLEYQWFVDFAVYSGGVYLFTEAYYYMLGPAKETNIAVFWCLLTVTFSIKMFLTVTRLYFSAEEGGERSVCLTFAFLFLLLAMLVQVVREETLELGLEPGLASMTQNLEPLLKKQGWDWALPVAKLAIRVGLAVVGSVLGAFLTFPGLRLAQTHRDALTMSEDRPMLQFLLHTSFLSPLFILWLWTKPIARDFLHQPPFGETRFSLLSDSAFDSGRLWLLVVLCLLRLAVTRPHLQAYLCLAKARVEQLRREAGRIEAREIQQRVVRVYCYVTVVSLQYLTPLILTLNCTLLLKTLGGYSWGLGPAPLLSPDPSSASAAPIGSGEDEVQQTAARIAGALGGLLTPLFLRGVLAYLIWWTAACQLLASLFGLYFHQHLAGS [TMEM161A]”: -0.184 and -0.0501.
